Among the data in patent US20140249052A1 are Intensity (AU) values, retold here.

This experiment addresses Bio-GrBP5 (biotin-graphite binding peptide fusion, Bio-…). As to the kind of experiment: integrated photoluminescence at 605 nm (514 nm laser) of SA-QD immobilised on bio-GrBP5 nanowires on graphite; the row 'SA-QD Bare' (38019.9, Std. Dev. 8427) is on graphite without peptide.

As for “Cd-Se Qdot 605-streptavidin conjugate (Q10101MP, Life Technologies) (from UniProt P22629 37-163)”, the Intensity (AU) was 88200 AU.
